Reference: patent US20230002478A1

What was measured:
[1] = target: SARS-CoV-2 S Trimer (SARS-CoV-2), P0DTC2; experiment: SPR; settings: remark: other sources report otherwise
[2] = target: SARS-CoV-2 S1-Fc (South Africa 178-08) (SARS-CoV-2), P0DTC2; experiment: SPR; settings: remark: other sources report otherwise

B1: 6-63 (Fc fusion)
chain: EVQLVESGGGLVQPGGSLRLSCAASGQTFNMGWFRQAPGKEREFVAAIGSGGSTSYADSVKGRFTISADNSKNTAYLQMNSLKPEDTAVYYCWRLGNDYFDYWGQGTLVTVSS
Kd [1]: 0.68 nM
Kd [2]: 26.8 nM
